Test results reported in publication doi:10.1101/2021.01.08.425872.
Where two headings read alike, the source gives them in different places.

Columns and labels:
[1] = target: taxol-stabilized microtubules (porcine brain tubulin) (porcine) (UniProt P02550); assay: co-sedimentation
[2] = target: taxol-stabilized microtubules (porcine brain tubulin) (porcine) (UniProt P02550); assay: co-sedimentation; remark: listed apart in the source

ICR2-His6 (from UniProt Q9ZQC5 56-583) (natural protein)
stoichiometry N (mol per mol of tubulin) [1]: 0.85

B1: ICR1-His6 (natural protein)
chain: MPRPRVSELSQRQAPRLRSSSSTSDSNHSNRLITTDQSFKPGVDRKSPRSGGPNSDPLGQKKLGGRISDLESQLGQAQEELRLLKEQLANAEAVKKQAQDELHKKSKKPNPLARVEESATEAERIDRDEIPGDVQKETDVFEVPVEKIAVEEEELRSGNDEAEKLVAKEDEIKMLKARLYDMEKEHESLGKENESLKNQLSDSASEISNVKANEDEMVSKVSRIGEELEESRAKTAHLKEKLESMEEAKDALEAEMKKLRVQTEQWRKAADAAAAVLSGEFEMNGRDRSGSTEKYYAGGFFDPSAGFMDPPGMADDYDDGLGSGKRKSSGMKMFGELWRKKGQK
stoichiometry N (mol per mol of tubulin) [1]: 0.4
stoichiometry N (mol per mol of tubulin) [2]: 0.35
